Measurements taken from patent US20220112288A1 (published 2022).
Residue numbers refer to the chain shown, from its start.

B1: 75110_01D24A (antibody, V domains shown)
VH: QVQLQQWGAGLLKPSETLSLTCAVYGGSFSGYYWSWIRQPPGKGLEWIGEINHSGSTNYNPSLKSRVTISVDTSENQFSLKLNSVTAADTAVYYCARLVNWFDPWGQGTLVTVSS
VL: EIQMTQSPSSVSASVGDRVTITCRASQDISNWLAWYQQKPGKAPNLLIFAASSLQTGVPSRFSGSGSGTDFTLTISSLQPDDFATYYCQQANSFPYSFGQGTNLGIK
notes: Tested as non-clonal AlivaMab Mouse Kappa hybridoma supernatant: human variable domains and human kappa, mouse Fc
B2: 75110_02I16A (antibody, IgG1, V domains shown)
VH: QVQLQQWGAGLLKPSETLSLTCDVYGGSFSGYYWTWIRQPPGKGLEWIGEINHSGTTNSNPSLKSRVTISVDTSKSQFSLRLSSVTAADTAVYFCTRELNWFDPWGQGTLVTVSS
VL: DIQMTQSPSSVSASVGDRVTITCRASQDIANWLAWYQQKPGKAPQLLIYAASSLLGGVPSRFSGSGSGADFTLTISSLHPEDFATYYCQQANSFPYTFGQGTKLEIK
notes: Tested as non-clonal AlivaMab Mouse Kappa hybridoma supernatant: human variable domains and human kappa, mouse Fc; also called 75110_02116A
B3: 75110_01J17A (antibody, IgG1, V domains shown)
VH: EVQLVESGGGLVQPGGSLRLSCAASGFTFSSYDMHWVRQGTGKGLEWVSTIGTADDTYYPGSVKGRFTISRENAENSLYLQMNSLRAGDTAVYYCARGGDYYYGMDVWGQGTTVTVSS
VL: EIVLAQSPGTLSLSPGERATLSCRASQSVYISYLAWYQQKPGQAPRLLIYGASSRATGIPDRFSGSGSGTDFTLTITRLEPEDFAVYYCQQFGSSPFTFGPGTKVDFK
notes: as for B1
B4: 75110_04G16A (antibody, V domains shown)
VH: QVQLQESGPGLVKPSQTLSLTCTVSGDSISSGYYYWSWIRQHPGKGLEWIGYISYSGSTYYNPSLKSRLTISVNTSKNQFSLKLSSLTAADTAVYYCARDRPSNFDAFDIWGQGTMVTVSS
VL: B3 VL with A5T, Y30G, I31S, S32T, S53F, T77S, F92Y, F97L, F107I
notes: as for B1
B5: 75110_14P05A (antibody, V domains shown)
VH: B3 VH with M34V, G40A, D55G, E75K, D100F
VL: B3 VL with A5T, Y30S, I31S, A44T, T77S, Y87F, F92S, F107V
notes: as for B1
B6: 75110_04P06A (antibody, IgG1, V domains shown)
VH: B3 VH with S31N, G40A, D55G, E75K
VL: B3 VL with A5T, G9D, V29L, Y30S, I31S, S32V, T77N, A85V, F92Y, F107I
notes: as for B1
B7: 75110_07E04A (antibody, IgG1, V domains shown)
VH: B3 VH with A24V, G40A, D55G, E75K, N76K, S77F, D100Y
VL: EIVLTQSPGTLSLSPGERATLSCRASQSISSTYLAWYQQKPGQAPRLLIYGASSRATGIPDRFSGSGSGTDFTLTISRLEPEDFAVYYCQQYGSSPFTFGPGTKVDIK
notes: as for B1
B8: 75110_01N04A (antibody, IgG1, V domains shown)
VH: B3 VH with S31N, G40A, D55G, E75K, Y101F, M105L
VL: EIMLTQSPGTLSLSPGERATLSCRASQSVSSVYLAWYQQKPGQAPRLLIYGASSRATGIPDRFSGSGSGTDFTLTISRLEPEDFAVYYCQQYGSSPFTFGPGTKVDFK
notes: as for B1
B9: 75110_01K10A (antibody, V domains shown)
VH: B3 VH with G10A, S30R, S31N, G40A, D55G, E75K
VL: B3 VL with A5T, G9D, V29L, Y30S, I31S, S32V, S66T, T77S, F92Y, F107I
notes: as for B1
B10: 75110_05K11A (antibody, IgG1, V domains shown)
VH: B3 VH with G40P, D55G, G61A, E75K, D100F
VL: B3 VL with A5T, A19V, Y30S, I31N, S32T, T77S, A85V, F92H, F107I
notes: as for B1

molecular target: T1, huCD4-HIS (human, UniProt P01730 26-390, limits assumed); assay: ELISA binning, competitor Ibalizumab; 100 ng/mL huCD4-HIS, anti-HIS HRP detection; background 45, max binding 3000000
T1 construct: the ELISA binning is not described in the text of this stretch

Binder | Ibalizumab ELISA binning signal
B1 | 20300
B2 | 823000
B3 | 755000
B4 | 52600
B5 | 710000
B6 | 1.22e+06
B7 | 1.73e+06
B8 | 1.04e+06
B9 | 890000
B10 | 1.18e+06

molecular target: T2, human CD4 on cells (SKW3 cells; human PBMCs) (human, UniProt P01730 26-458); assay: FACS binning on SKW3 cells pre-incubated with supernatant; competitor OKT4-A488, its signal read; background 2163, max binding 8200
T2 construct: whole, on cells; SKW3 CD4 knockout cells served as the negative cell line; also called hCD4

Binder | SKW3 FACS Binning OKT4 A488
B1 | 11100
B2 | 9810
B3 | 10000
B4 | 9640
B5 | 9340
B6 | 10100
B7 | 9940
B8 | 9720
B9 | 10800
B10 | 9730

molecular target: T2, human CD4 on cells (SKW3 cells; human …); assay: FACS primary screen, non-clonal hybridoma supernatant, SKW3 vs SKW3 CD4 knockout cells, anti-human kappa FITC

Binder | SKW3 WT vs KO anti-hKappa-FITC [fold]
B1 | 2.5
B2 | 1.7
B3 | 2.1
B4 | 2.3
B5 | 2.8
B6 | 1.6
B7 | 1.8
B8 | 1.9
B9 | 2.2
B10 | 1.8

molecular target: T2, human CD4 on cells (SKW3 cells; human …); assay: FACS binning on SKW3 cells pre-incubated with supernatant; competitor RPA-T4-PE-Dazzle 594, its signal read; background 783, max binding 15000

Binder | SKW3 FACS Binning RPA-T4-PE-Dazzle 594
B1 | 15200
B2 | 2590
B3 | 1950
B4 | 13500
B5 | 20300
B6 | 2190
B7 | 2420
B8 | 2240
B9 | 1510
B10 | 2190

molecular target: T2, human CD4 on cells (SKW3 cells; human …); assay: FACS binning on SKW3 cells pre-incubated with supernatant; competitor OKT4a read with anti-human A647 secondary; background 5000, max binding 35000

Binder | SKW3 FACS Binning OKT4a anti-hu A647 Secondary
B1 | 5320
B2 | 30700
B3 | 37700
B4 | 6740
B5 | 6110
B6 | 37400
B7 | 31300
B8 | 38100
B9 | 30000
B10 | 37600

molecular target: T2, human CD4 on cells (SKW3 cells; human …); assay: FACS confirmation, supernatant on human PBMCs, anti-mouse Fc 647, CD4+ gate

Binder | PBMCs, anti-mFc 647 CD4+ gate - RL1 Binding
B1 | 257000
B2 | 218000
B3 | 280000
B4 | 255000
B5 | 187000
B6 | 292000
B7 | 206000
B8 | 210000
B9 | 283000
B10 | 267000

molecular target: T2, human CD4 on cells (SKW3 cells; human …); assay: FACS confirmation, supernatant on SKW3 WT cells, anti-mouse Fc 647; background gMFI 3300

Binder | SKW3 WT anti-mFc 647, gMFI [gMFI]
B1 | 25000
B2 | 19400
B3 | 31600
B4 | 32500
B5 | 24000
B6 | 24500
B7 | 22000
B8 | 28000
B9 | 24300
B10 | 35900

molecular target: T2, human CD4 on cells (SKW3 cells; human …); assay: FACS confirmation, supernatant on human PBMCs, anti-mouse Fc 647, CD4+ percent of viable cells

Binder | PBMCs, anti-mFc 647 CD4+ Percent Bound of Viable [%]
B1 | 31
B2 | 29
B3 | 32
B4 | 32
B5 | 27
B6 | 31
B7 | 30
B8 | 33
B9 | 30
B10 | 31

molecular target: T2, human CD4 on cells (SKW3 cells; human …); assay: FACS confirmation, supernatant on SKW3 WT cells, anti-human kappa FITC; background gMFI 2500

Binder | SKW3 WT anti-hu Kappa FITC, gMFI [gMFI]
B1 | 5520
B2 | 5740
B3 | 5780
B4 | 6830
B5 | 7520
B6 | 5600
B7 | 6360
B8 | 5640
B9 | 5940
B10 | 6700

molecular target: T2, human CD4 on cells (SKW3 cells; human …); assay: FACS primary screen, non-clonal hybridoma supernatant, SKW3 vs SKW3 CD4 knockout cells, anti-mouse Fc A647

Binder | SKW3 WT vs KO anti-mFc-647 [fold]
B1 | 6.8
B2 | 3
B3 | 4.3
B4 | 6.3
B5 | 4.6
B6 | 3.9
B7 | 2.9
B8 | 3.7
B9 | 4.6
B10 | 4
